*1 amine or outer side, *2 acyl side, *3 side chain or, on linkers, in order; H or OH if unused. Where no end group is shown, it is not given here. Side-chain parts run from the residue outwards. The star is where a group is joined. C18 diacid = O=C(O)CCCCCCCCCCCCCCCCC(=O)*; C16 diacid = O=C(O)CCCCCCCCCCCCCCC(=O)*; γGlu = O=C(O)[C@H](CCC(=O)[*:2])N[*:1]; AEEA = NCCOCCOCC(=O)O
T1: human GIP receptor (human, UniProt P48546 22-466)
T1 sequence (looked up): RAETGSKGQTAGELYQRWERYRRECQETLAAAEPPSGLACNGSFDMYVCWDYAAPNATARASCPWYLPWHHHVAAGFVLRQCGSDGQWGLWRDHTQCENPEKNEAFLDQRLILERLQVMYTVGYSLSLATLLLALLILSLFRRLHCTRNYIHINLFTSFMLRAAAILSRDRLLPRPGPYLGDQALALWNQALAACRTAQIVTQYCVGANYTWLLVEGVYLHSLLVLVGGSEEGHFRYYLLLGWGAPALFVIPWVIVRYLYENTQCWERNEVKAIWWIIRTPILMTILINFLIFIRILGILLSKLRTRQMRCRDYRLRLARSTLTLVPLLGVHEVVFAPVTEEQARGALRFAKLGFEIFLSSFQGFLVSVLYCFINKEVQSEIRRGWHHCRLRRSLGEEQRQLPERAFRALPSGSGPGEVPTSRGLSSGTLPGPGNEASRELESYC

B1: AT472 (peptide)
peptide: EGTFISDYSIAMDKIK(C16 diacid)QQDFVNWLLAQKGPSS-OH
modifications: N-terminus assumed
SMILES: CC[C@H](C)[C@H](NC(=O)[C@H](CO)NC(=O)[C@H](Cc1ccc(O)cc1)NC(=O)[C@H](CC(=O)O)NC(=O)[C@H](CO)NC(=O)[C@@H](NC(=O)[C@H](Cc1ccccc1)NC(=O)[C@@H](NC(=O)CNC(=O)[C@@H](N)CCC(=O)O)[C@@H](C)O)[C@@H](C)CC)C(=O)N[C@@H](C)C(=O)N[C@@H](CCSC)C(=O)N[C@@H](CC(=O)O)C(=O)N[C@@H](CCCCN)C(=O)N[C@H](C(=O)N[C@@H](CCCCNC(=O)CCCCCCCCCCCCCCC(=O)O)C(=O)N[C@@H](CCC(N)=O)C(=O)N[C@@H](CCC(N)=O)C(=O)N[C@@H](CC(=O)O)C(=O)N[C@@H](Cc1ccccc1)C(=O)N[C@H](C(=O)N[C@@H](CC(N)=O)C(=O)N[C@@H](Cc1c[nH]c2ccccc12)C(=O)N[C@@H](CC(C)C)C(=O)N[C@@H](CC(C)C)C(=O)N[C@@H](C)C(=O)N[C@@H](CCC(N)=O)C(=O)N[C@@H](CCCCN)C(=O)NCC(=O)N1CCC[C@H]1C(=O)N[C@@H](CO)C(=O)N[C@@H](CO)C(=O)O)C(C)C)[C@@H](C)CC
B2: AT415 (peptide)
peptide: EGTFISDYSIAMDKIK([AEEA-AEEA-γGlu-C16 diacid])QQDFVNWLLAQKGKKNDW-OH
modifications: N-terminus assumed
SMILES: CC[C@H](C)[C@H](NC(=O)[C@H](CO)NC(=O)[C@H](Cc1ccc(O)cc1)NC(=O)[C@H](CC(=O)O)NC(=O)[C@H](CO)NC(=O)[C@@H](NC(=O)[C@H](Cc1ccccc1)NC(=O)[C@@H](NC(=O)CNC(=O)[C@@H](N)CCC(=O)O)[C@@H](C)O)[C@@H](C)CC)C(=O)N[C@@H](C)C(=O)N[C@@H](CCSC)C(=O)N[C@@H](CC(=O)O)C(=O)N[C@@H](CCCCN)C(=O)N[C@H](C(=O)N[C@@H](CCCCNC(=O)COCCOCCNC(=O)COCCOCCNC(=O)CC[C@H](NC(=O)CCCCCCCCCCCCCCC(=O)O)C(=O)O)C(=O)N[C@@H](CCC(N)=O)C(=O)N[C@@H](CCC(N)=O)C(=O)N[C@@H](CC(=O)O)C(=O)N[C@@H](Cc1ccccc1)C(=O)N[C@H](C(=O)N[C@@H](CC(N)=O)C(=O)N[C@@H](Cc1c[nH]c2ccccc12)C(=O)N[C@@H](CC(C)C)C(=O)N[C@@H](CC(C)C)C(=O)N[C@@H](C)C(=O)N[C@@H](CCC(N)=O)C(=O)N[C@@H](CCCCN)C(=O)NCC(=O)N[C@@H](CCCCN)C(=O)N[C@@H](CCCCN)C(=O)N[C@@H](CC(N)=O)C(=O)N[C@@H](CC(=O)O)C(=O)N[C@@H](Cc1c[nH]c2ccccc12)C(=O)O)C(C)C)[C@@H](C)CC
B3: AT471 (peptide)
peptide: EGTFISDYSIAMDKIK(C16 diacid)QQDFVNWLLAQKGPSSG-OH
modifications: N-terminus assumed
SMILES: CC[C@H](C)[C@H](NC(=O)[C@H](CO)NC(=O)[C@H](Cc1ccc(O)cc1)NC(=O)[C@H](CC(=O)O)NC(=O)[C@H](CO)NC(=O)[C@@H](NC(=O)[C@H](Cc1ccccc1)NC(=O)[C@@H](NC(=O)CNC(=O)[C@@H](N)CCC(=O)O)[C@@H](C)O)[C@@H](C)CC)C(=O)N[C@@H](C)C(=O)N[C@@H](CCSC)C(=O)N[C@@H](CC(=O)O)C(=O)N[C@@H](CCCCN)C(=O)N[C@H](C(=O)N[C@@H](CCCCNC(=O)CCCCCCCCCCCCCCC(=O)O)C(=O)N[C@@H](CCC(N)=O)C(=O)N[C@@H](CCC(N)=O)C(=O)N[C@@H](CC(=O)O)C(=O)N[C@@H](Cc1ccccc1)C(=O)N[C@H](C(=O)N[C@@H](CC(N)=O)C(=O)N[C@@H](Cc1c[nH]c2ccccc12)C(=O)N[C@@H](CC(C)C)C(=O)N[C@@H](CC(C)C)C(=O)N[C@@H](C)C(=O)N[C@@H](CCC(N)=O)C(=O)N[C@@H](CCCCN)C(=O)NCC(=O)N1CCC[C@H]1C(=O)N[C@@H](CO)C(=O)N[C@@H](CO)C(=O)NCC(=O)O)C(C)C)[C@@H](C)CC
B4: AT440 (peptide)
peptide: SGTFISDYSIAMDRIK([AEEA-AEEA-AEEA-γGlu-C16 diacid])QQDFVNWLLAQRGPSSGAPPPS-OH
modifications: N-terminus assumed
SMILES: CC[C@H](C)[C@H](NC(=O)[C@H](CO)NC(=O)[C@H](Cc1ccc(O)cc1)NC(=O)[C@H](CC(=O)O)NC(=O)[C@H](CO)NC(=O)[C@@H](NC(=O)[C@H](Cc1ccccc1)NC(=O)[C@@H](NC(=O)CNC(=O)[C@@H](N)CO)[C@@H](C)O)[C@@H](C)CC)C(=O)N[C@@H](C)C(=O)N[C@@H](CCSC)C(=O)N[C@@H](CC(=O)O)C(=O)N[C@@H](CCCNC(=N)N)C(=O)N[C@H](C(=O)N[C@@H](CCCCNC(=O)COCCOCCNC(=O)COCCOCCNC(=O)COCCOCCNC(=O)CC[C@H](NC(=O)CCCCCCCCCCCCCCC(=O)O)C(=O)O)C(=O)N[C@@H](CCC(N)=O)C(=O)N[C@@H](CCC(N)=O)C(=O)N[C@@H](CC(=O)O)C(=O)N[C@@H](Cc1ccccc1)C(=O)N[C@H](C(=O)N[C@@H](CC(N)=O)C(=O)N[C@@H](Cc1c[nH]c2ccccc12)C(=O)N[C@@H](CC(C)C)C(=O)N[C@@H](CC(C)C)C(=O)N[C@@H](C)C(=O)N[C@@H](CCC(N)=O)C(=O)N[C@@H](CCCNC(=N)N)C(=O)NCC(=O)N1CCC[C@H]1C(=O)N[C@@H](CO)C(=O)N[C@@H](CO)C(=O)NCC(=O)N[C@@H](C)C(=O)N1CCC[C@H]1C(=O)N1CCC[C@H]1C(=O)N1CCC[C@H]1C(=O)N[C@@H](CO)C(=O)O)C(C)C)[C@@H](C)CC
B5: AT438 (peptide)
peptide: SGTFISDYSIAMDKIK([AEEA-AEEA-AEEA-γGlu-C18 diacid])QQDFVNWLLAQKGPSSGAPPPS-OH
modifications: N-terminus assumed
SMILES: CC[C@H](C)[C@H](NC(=O)[C@H](CO)NC(=O)[C@H](Cc1ccc(O)cc1)NC(=O)[C@H](CC(=O)O)NC(=O)[C@H](CO)NC(=O)[C@@H](NC(=O)[C@H](Cc1ccccc1)NC(=O)[C@@H](NC(=O)CNC(=O)[C@@H](N)CO)[C@@H](C)O)[C@@H](C)CC)C(=O)N[C@@H](C)C(=O)N[C@@H](CCSC)C(=O)N[C@@H](CC(=O)O)C(=O)N[C@@H](CCCCN)C(=O)N[C@H](C(=O)N[C@@H](CCCCNC(=O)COCCOCCNC(=O)COCCOCCNC(=O)COCCOCCNC(=O)CC[C@H](NC(=O)CCCCCCCCCCCCCCCCC(=O)O)C(=O)O)C(=O)N[C@@H](CCC(N)=O)C(=O)N[C@@H](CCC(N)=O)C(=O)N[C@@H](CC(=O)O)C(=O)N[C@@H](Cc1ccccc1)C(=O)N[C@H](C(=O)N[C@@H](CC(N)=O)C(=O)N[C@@H](Cc1c[nH]c2ccccc12)C(=O)N[C@@H](CC(C)C)C(=O)N[C@@H](CC(C)C)C(=O)N[C@@H](C)C(=O)N[C@@H](CCC(N)=O)C(=O)N[C@@H](CCCCN)C(=O)NCC(=O)N1CCC[C@H]1C(=O)N[C@@H](CO)C(=O)N[C@@H](CO)C(=O)NCC(=O)N[C@@H](C)C(=O)N1CCC[C@H]1C(=O)N1CCC[C@H]1C(=O)N1CCC[C@H]1C(=O)N[C@@H](CO)C(=O)O)C(C)C)[C@@H](C)CC
B6: AT442 (peptide)
peptide: SGTFISDYSIAMDRIK([AEEA-AEEA-AEEA-γGlu-C18 diacid])QQDFVNWLLAQRGPSSGAPPPS-OH
modifications: N-terminus assumed
SMILES: CC[C@H](C)[C@H](NC(=O)[C@H](CO)NC(=O)[C@H](Cc1ccc(O)cc1)NC(=O)[C@H](CC(=O)O)NC(=O)[C@H](CO)NC(=O)[C@@H](NC(=O)[C@H](Cc1ccccc1)NC(=O)[C@@H](NC(=O)CNC(=O)[C@@H](N)CO)[C@@H](C)O)[C@@H](C)CC)C(=O)N[C@@H](C)C(=O)N[C@@H](CCSC)C(=O)N[C@@H](CC(=O)O)C(=O)N[C@@H](CCCNC(=N)N)C(=O)N[C@H](C(=O)N[C@@H](CCCCNC(=O)COCCOCCNC(=O)COCCOCCNC(=O)COCCOCCNC(=O)CC[C@H](NC(=O)CCCCCCCCCCCCCCCCC(=O)O)C(=O)O)C(=O)N[C@@H](CCC(N)=O)C(=O)N[C@@H](CCC(N)=O)C(=O)N[C@@H](CC(=O)O)C(=O)N[C@@H](Cc1ccccc1)C(=O)N[C@H](C(=O)N[C@@H](CC(N)=O)C(=O)N[C@@H](Cc1c[nH]c2ccccc12)C(=O)N[C@@H](CC(C)C)C(=O)N[C@@H](CC(C)C)C(=O)N[C@@H](C)C(=O)N[C@@H](CCC(N)=O)C(=O)N[C@@H](CCCNC(=N)N)C(=O)NCC(=O)N1CCC[C@H]1C(=O)N[C@@H](CO)C(=O)N[C@@H](CO)C(=O)NCC(=O)N[C@@H](C)C(=O)N1CCC[C@H]1C(=O)N1CCC[C@H]1C(=O)N1CCC[C@H]1C(=O)N[C@@H](CO)C(=O)O)C(C)C)[C@@H](C)CC

biological target: T1, human GIP receptor; test: cell-based or functional assay

Binder | cAMP agonism % Emax [%] | cAMP antagonism [nM] | cAMP antagonism % inhib [%] | cAMP antagonism pIC50
B1 | 0 | 7.94 | 90 | 8.1
B2 | 0 | 13.6 | 87 | 7.9
B3 | 0 | 6.81 | 87 | 8.2

biological target: T1, human GIP receptor; test: cell-based or functional assay; remark: another data set of the same source

Binder | cAMP antagonism [nM] | cAMP antagonism % inhib [%] | cAMP antagonism log [log M] | cAMP agonism Emax
B4 | 103 | 100 | -7 | 
B5 | 54 | 100 | -7.3 | 
B1 | 15 | 100 | -7.8 | 
B6 | 26 | 77 | -7.6 | 
B2 | 55 | 87 | -7.3 | 4.6
B3 | 11 | 100 | -7.9 | 

— patent US20220298218A1 (ANTAG THERAPEUTICS, published 2022)
